± gives the standard deviation of the averaged measurements.
Test system: ATP
Test: switch fluorescence ratio, 500 uM ATP over buffer (Cy3 cluster intensity, sum of 5 cycles each) (fold (ratio)); higher = stronger signal-on switching upon ATP binding; sequences stand for … in TCGTCGGCAGCGTCAGATGTGTATAAGAGACAGTTTTTTTTTTTTTTTTTTTTTTTTT…TC
Conditions: aptamer strand: ATP DNA aptamer (quencher-CACCTGGGGGAGTATTGCGGAGGAAGG + anchor), 100 nM annealed; ATP concentration: 500 uM
Outline: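 Switching-strand clusters labelled with Cy3 on a modified Illumina MiSeq flow-cell were annealed to 100 nM quencher-labelled ATP aptamer, imaged in selection buffer, and re-imaged after 15 min with 500 uM ATP at 22 °C. This was done over five cycles with NaOH stripping and re-annealing in between. The fluorescence ratio is summed target-cycle over summed buffer-cycle Cy3 intensity per cluster, averaged per switch-domain sequence, excluding clusters outside 100-1000 RFU.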
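Also: ATP exposure 15 min at 22 °C before imaging.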

Sequence	switch fluorescence ratio
AGGGCTTTCT	0.97 ± 0.023
ACCGCGAAGG	1.025 ± 0.0058
AATATAATGT	1.03 ± 0.021
AGTGTGAAGG	1.003 ± 0.0099
ATTAAAACTT	1.05 ± 0.026
TTTTGGGGTC	1.02 ± 0.023
TTTCTGACGG	1.35 ± 0.58
TAGCTTGGCA	0.991 ± 0.048
GGTTAAAACT	0.987 ± 0.048
CAGTATGGGG	0.9664 ± 0.0013
TCGTTATTAA	1 ± 0.012
TTTTAGGTTC	1.01 ± 0.018
AAGGGGATT	1.01 ± 0.027
ATTTTGTATG	0.976 ± 0.026
GTAAGGGGGA	0.984 ± 0.031
AGAGGTGTGG	0.991 ± 0.05
TTGGGGGAGT	1.03 ± 0.022
TATTTATGTA	1.01 ± 0.045
ATTGATTTAA	0.9989 ± 0.0086
TTGGGAATAC	3.23 ± 0.53
GTCGGGGTAT	0.991 ± 0.012
AATCCCTTTT	1 ± 0.031
TTGTGTTGGG	1.01 ± 0.034
GCATATTTGA	0.981 ± 0.015
CATTGGGGGT	1.04 ± 0.021

Sequence	switch fluorescence ratio
ATTTGCGTTT	0.999 ± 0.019
GTGGGAGGGG	1 ± 0.015
AATTCGGGCG	1.02 ± 0.071
GTAGGTAACG	0.9867 ± 0.0079
AATTAGGGGG	0.981 ± 0.064
GCTGGAGTAT	0.987 ± 0.026
CGGGGAAAGT	0.996 ± 0.015
GCCCATTTCT	1.03 ± 0.039
ACTTGATTTT	1.02 ± 0.015
TGACGGGGGT	0.989 ± 0.028
AATAAGGGGG	1.01 ± 0.064
TTGGTTGAGA	0.9939 ± 0.0071
CTGTCCATCC	1.11 ± 0.035
TTGTGTAGTT	1.01 ± 0.024
ATGGATACGG	1.02 ± 0.011
ATTTAAATGT	1.01 ± 0.023
TCGTCTGCGG	1.04 ± 0.03
GCTCTATTTT	0.997 ± 0.019
GGACCAGGGT	1.04 ± 0.0071
CAACTGCATA	1.98 ± 0.063
TTTAGTGTGC	1.01 ± 0.03
GCTCTTAGTG	0.9894 ± 0.0032
ATGATTTTTC	0.976 ± 0.039
AAAATTCAGG	1.02 ± 0.011
TCTTAGGCGT	1.02 ± 0.022

Sequence	switch fluorescence ratio
TTTATAACAC	1.05 ± 0.013
ACGTTTGTTT	0.971 ± 0.049
ATGATGGTTA	0.9978 ± 0.0052
GCGTTGAGCT	0.987 ± 0.023
CCGGGGGCCT	1.08 ± 0.032
GGGTGCAAGC	1.058 ± 0.0049
AACCAATAGC	1.1 ± 0.035
AACTTTGTGC	1 ± 0.055
AATGGGGAAT	1.25 ± 0.4
TAATGGTT	0.979 ± 0.011
ATTGGCATGC	0.996 ± 0.027
CTGGGAGAAT	1 ± 0.024
TAGGAGTGAA	0.9792 ± 0.0021
TCATTCAACT	1 ± 0.013
AGATGCGGTA	1.01 ± 0.029
GGGGTCGGGG	1.03 ± 0.041
TATGTCATGT	1.02 ± 0.011
TATATTTTTC	1.15 ± 0.24
ACACATCCGG	1.06 ± 0.015
GGGTTTGTTG	0.988 ± 0.026
CGGGCGCGGA	1.01 ± 0.048
CTCATATGCA	1 ± 0.029
AAAAGAAAAG	1.01 ± 0.051
ATTGCTCGA	0.993 ± 0.02
TTCAAAATTT	0.982 ± 0.015

Sequence	switch fluorescence ratio
GGCCTCCTGT	1.02 ± 0.033
GGTTTTGTGC	1.03 ± 0.091
TTGTTGAGAG	1.02 ± 0.022
AAGCCGTGTC	1.01 ± 0.031
TGGGGCTGGT	0.99 ± 0.018
AGTACGGATA	1.03 ± 0.074
GCGATTTTTA	1.09 ± 0.089
AGGTCATGTA	1.01 ± 0.026
TTTTTTCGGT	1.01 ± 0.051
GGGTGTTAGT	1 ± 0.016
GGTTGAATGA	0.992 ± 0.053
GGGAAGACTT	1.02 ± 0.087
ATGTCCTATG	1.003 ± 0.0066
CCGGTATTGT	1.03 ± 0.037
TAATGTGTAA	0.9944 ± 0.0052
CATGACGAAT	1.03 ± 0.026
TTTGTGGAGG	0.999 ± 0.023
AAGTGCGACC	1.03 ± 0.057
CTTGTTGTTC	0.9981 ± 0.0063
CATTTTTGGA	1.003 ± 0.0076
TGAAGGGGCA	0.951 ± 0.041
GTTTGTGGTT	0.988 ± 0.019
AGGGTCTTGC	0.998 ± 0.014
TTGACGCAGG	1.06 ± 0.012
TCAATCCTTG	0.999 ± 0.035

Sequence	switch fluorescence ratio
TTATGAGCGG	1.02 ± 0.048
TAAAGAGAGC	1.01 ± 0.097
AGTCAACTTG	1.01 ± 0.053
TAAGTGCAT	1.0026 ± 4.4e-05
AAGAGCCGCG	1.03 ± 0.045
GATAATGAAC	1.02 ± 0.02
ATGGTAAGT	0.9815 ± 0.0057
ATTGGGCGAG	0.993 ± 0.013
CGGGTCCGTA	0.9751 ± 0.004
GGTTATATTT	1.03 ± 0.072
CGTCTGAATG	0.9983 ± 0.0024
ACCAGATCAC	1.04 ± 0.019
TAATTTTAGG	0.996 ± 0.012
ACTATAGTGT	1.02 ± 0.022
CTGCGTCGTT	0.9967 ± 0.004
GCTCAACTAA	1.02 ± 0.02
CGTACGGCGG	1.015 ± 0.0038
ATGCCGGAG	0.986 ± 0.028
AAGGGGTATT	1.01 ± 0.027
TAAAAATATG	0.9907 ± 0.0013
GATTTTTTGC	0.98176 ± 0.00098
TTAGGGAATG	1 ± 0.07
TGGTAGGGG	1.01 ± 0.016
GAGTACTAGA	1.02 ± 0.018
CAAGTTGTAC	1.1 ± 0.019

Sequence	switch fluorescence ratio
TCCCGGGAAA	1.04 ± 0.082
TTGGGGGGCT	1.01 ± 0.09
GATTTGGCGA	0.992 ± 0.011
GAGTTTAGAT	0.994 ± 0.018
ACTAGCGGCG	1.05 ± 0.024
GACTAAAGGT	1.01 ± 0.013
GGTTGGGGAG	0.985 ± 0.019
AATGGCACAG	1.01 ± 0.015
CGGGTGAAGG	1.06 ± 0.049
TATAGAAGCG	1.01 ± 0.021
TGCTGAAGGA	0.9743 ± 0.0064
CATGGGCAG	0.992 ± 0.034
TGGGTGGGTA	1.03 ± 0.026
CTATGACAGC	1.01 ± 0.016
TCATAAAGGG	1.03 ± 0.0064
AATCTTGATG	0.981 ± 0.03
TTTAGTATTT	1.01 ± 0.037
TTCAAGTGGG	0.9848 ± 0.0028
TTGCAAGTTG	1.01 ± 0.021
GGAATGACGA	0.989 ± 0.048
TAACGGGGTT	0.9826 ± 0.00097
CTTAATTTTT	0.98 ± 0.032
TAGGATTGCT	1 ± 0.021
GTAGCTGGTG	1.02 ± 0.018
AGGGATGGGT	0.976 ± 0.0026

Sequence	switch fluorescence ratio
AGCAGAGGAC	0.971 ± 0.058
GCAGGGCGGG	0.99 ± 0.011
GATGGCGGTG	0.995 ± 0.00091
TAGCGGAAAA	1.018 ± 0.0026
AGCGGATTAA	1.016 ± 0.0017
ACGTATTTTG	1.08 ± 0.045
ACCCCGGGCA	1.08 ± 0.018
GGTGTTGGGC	0.998 ± 0.067
GAATTAACAA	0.999 ± 0.024
TGTATGGGGA	0.9997 ± 0.004
TATCGAAGGC	0.982 ± 0.022
TACATAGGTT	1.048 ± 0.006
GTTGGGTCAT	1.01 ± 0.045
TTTTTGAAGG	0.992 ± 0.024
ATGAAGGGTG	1.04 ± 0.036
TAATTGGGGT	0.994 ± 0.018
TTTGTTGGGG	1.02 ± 0.011
GGGGTAGAAA	0.969 ± 0.013
TAGGCTTAGG	1.029 ± 0.0019
GAGGGAACAG	1.01 ± 0.013
CTTACGTGTG	1.03 ± 0.034
TTAATAAATG	1 ± 0.015
GATAGATTTA	0.9977 ± 0.0033
TAGGACGTGG	0.988 ± 0.061
TATGAGGGGC	0.967 ± 0.013

Sequence	switch fluorescence ratio
TTTTGATACT	1.0096 ± 0.00024
TTCGGGGTTG	0.96 ± 0.015
ACGCGGGGAG	1.01 ± 0.034
GTGTGTGGGA	1 ± 0.026
CGGGGGTGTA	0.995 ± 0.026
TTATGCAGGG	1.01 ± 0.012
TATTAAGTAT	1.01 ± 0.019
CCTTTATGGT	0.983 ± 0.011
CGGAAAGCAG	1.02 ± 0.028
TTTAGGCAT	0.986 ± 0.028
CTTTAATCC	1.27 ± 0.48
GGGGTAGAGT	0.98 ± 0.017
CGTGAAGGCG	0.952 ± 0.024
GTAAGGGAAT	0.9718 ± 0.0065
ACTTGTAGCT	1.02 ± 0.011
GGATGCGGCC	0.992 ± 0.023
CGAGTTGCTG	0.988 ± 0.11
TTTGCGTTGT	1.022 ± 0.0061
TCAGAGGGCA	1 ± 0.053
TTACGGGCAC	1.18 ± 0.012
CGTGGGAATT	0.977 ± 0.019
TATAAATGGG	1 ± 0.0042
CTCATTGGGC	0.991 ± 0.027
TTTTAATGTT	1 ± 0.046
GGTGAAAGCC	0.98 ± 0.049

Source: the supplement of paper PMC10126150
